Laboratory results as given in patent publication US20260070976A1 (Alector, published 2026).

How the values were obtained:
[1] = target: cynomolgus PILRA on HEK293F cells (cynomolgus monkey, UniProt A0A7N9CRU1 20-292); assay: cA Kd of Table 9; method not stated (Example 8: HEK293F overexpressing cells, FACS)
[2] = target: T1, human PILRA G78 on HEK293F cells (human, UniProt Q9UKJ1 20-303); assay: flow cytometry blocking assay; antibody on HEK293F cells overexpressing human PILRA G78, then 5 ug/mL NPDC1 Fc as the blocked ligand; cell-bound NPDC1 Fc read as MFI
T1 construct: also called hA; G78 OE
Description: A dose response curve of antibodies X0 (PA-29), X1, X2, X7, X11, X12, X13, X14, X16, X18, and X20 was assessed for modulating the binding of Neural Proliferation Differentiation and Control Protein 1 (NPDC1) Fc to 293 cells ectopically expressing human PILRA (HEK293F human PILRA G78 overexpressing cells). Conditioned media samples containing antibodies were incubated with human PILRA overexpressing cells for 30 minutes at 4° C., and then 5 μg/mL NPDC1 Fc was added to this mixture. After 30 minutes of incubation at 4° C., the cells were washed and cell-bound NPDC1 Fc was detected with anti-human IgG Alexa Fluor 647. The cells were analyzed by flow cytometry on FACS Canto II with the percentage of NPDC1 Fc binding in the presence of conditioned media relative to NPDC1 Fc binding alone was calculated. […] All tested antibodies decreased binding of NPDC1 to human PILRA.

[3] = target: T2, cell surface PILRA on human monocytes (human, UniProt Q9UKJ1 20-303); assay: cell-based or functional assay
[4] = target: T2, cell surface PILRA on human monocytes; assay: flow cytometry; Alexa Fluor 647-conjugated antibody on human CD14+ monocytes, Fc receptors blocked, 30 min on ice
Description: Anti-human PILRA antibodies X0 (PA-29) and its affinity matured variants were tested for their abilities to bind cell surface PILRA on human and cynomolgus monocytes. CD14+ monocytes were isolated from healthy human donors using a RosetteSep Human Monocyte Enrichment Cocktail kit (StemCell). Cynomolgus white blood cells were collected from cynomolgus whole blood. In both human and cynomolgus samples, the Fc receptor on the tested monocytes was blocked and the monocytes were treated with Alexa Fluor 647-conjugated PILRA antibodies for 30 minutes on ice. A dose response curve of antibodies X0 (PA-29), X1, X2, X7, X11, X12, X13, X14, X16, X18, and X20 was tested for binding to cell surface PILRA in human and cynomolgus monocytes, and antibodies bound to PILRA in a dose response manner. In another sample of human donor monocytes, a dose response curve of antibodies X0 (PA-29), X1, X2, X11, X13, X18, X29 (PA-43), and X34 (A6) was tested for binding to cell surface PILRA in human and cynomolgus monocytes, and antibodies bound to PILRA in a dose response manner.

[5] = target: T1, human PILRA G78 on HEK293F cells; assay: flow cytometry; HEK293F cells overexpressing human PILRA, goat anti-human IgG Alexa Fluor 647
Description: Conditioned media samples containing the tested anti-PILRA antibodies were assessed for binding to HEK293F cells overexpressing human PILRA (hA), human PILRB (hB), and cynomolgus PILRA (cA) by FACS. The conditioned media containing the tested antibodies were incubated with the cells for 30 min at 4° C., washed twice, and then detected with goat anti-human IgG secondary antibody (Alexa Fluor 647) at 1:1000 dilution. The cells were analyzed by flow cytometry on FACS Canto II, and for all cell lines, the reported MFI values were calculated for each conditioned media. These antibodies were evaluated for nonspecific binding using a baculovirus particle (BVP) assay (Jain T., Sun T., Durand S., Hall A., Houston N. R., Nett J. H., Sharkey B., Bobrowicz B., Caffry L, Yu Y., et al. Biophysical properties of the clinical-stage antibody landscape. Proc. Natl. Acad. Sci. USA. 2017; 114:944-949. Doi: 10.1073/pnas.1616408114.). The BVP scores are listed in Table 9, and the higher the score the more nonspecific binding that occurred.

recombinant human PILRB = recombinant human PILRB (human, UniProt Q9UKJ0 20-191); assay: SPR, Carterra LSA, steady-state fit
Chain of recombinant human PILRB (Q9UKJ0 20-191 limits assumed): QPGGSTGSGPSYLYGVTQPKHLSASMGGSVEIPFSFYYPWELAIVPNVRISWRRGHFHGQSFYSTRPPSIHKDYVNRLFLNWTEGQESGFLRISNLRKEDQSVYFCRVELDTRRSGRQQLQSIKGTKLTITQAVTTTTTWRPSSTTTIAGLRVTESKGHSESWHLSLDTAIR

T1 sequence (Q9UKJ1 20-303 R78G): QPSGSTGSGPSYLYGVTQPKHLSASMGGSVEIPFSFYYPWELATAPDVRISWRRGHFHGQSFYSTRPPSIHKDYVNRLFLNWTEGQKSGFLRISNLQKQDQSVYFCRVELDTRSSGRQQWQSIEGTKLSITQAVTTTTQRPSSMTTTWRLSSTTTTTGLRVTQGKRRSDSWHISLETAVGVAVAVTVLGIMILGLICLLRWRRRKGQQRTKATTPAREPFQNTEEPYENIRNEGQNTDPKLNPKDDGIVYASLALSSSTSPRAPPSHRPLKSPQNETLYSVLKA
T2 sequence (Q9UKJ1 20-303): as the sequence (Q9UKJ1 20-303 R78G) above, with G59R counted along it
Chain of cynomolgus PILRA on HEK293F cells (A0A7N9CRU1 entry or part of it): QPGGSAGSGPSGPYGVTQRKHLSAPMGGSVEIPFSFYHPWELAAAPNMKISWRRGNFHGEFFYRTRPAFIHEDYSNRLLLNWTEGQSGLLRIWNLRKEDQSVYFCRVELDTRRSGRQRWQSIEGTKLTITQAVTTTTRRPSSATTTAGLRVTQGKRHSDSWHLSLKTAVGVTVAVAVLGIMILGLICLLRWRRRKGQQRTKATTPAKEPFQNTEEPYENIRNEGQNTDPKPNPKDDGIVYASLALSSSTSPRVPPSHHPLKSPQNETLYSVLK

B1: X13 (antibody, human IgG4, V domains shown)
VH: QVQLVQSGAEVKKPGSSVKVSCKASGYNFLHYDVNWVRQAPGQGLEWMGGIIPIFGTANYAQKFQGRVTITADESTSTAYMELSSLRSEDTAVYYCATAVGAGWFDPWGQGTLVTVSS
VL: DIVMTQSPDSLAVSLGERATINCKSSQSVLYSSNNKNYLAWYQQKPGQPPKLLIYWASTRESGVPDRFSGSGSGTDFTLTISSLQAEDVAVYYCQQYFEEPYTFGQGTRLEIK
notes: conditioned media in the HEK293F assays
For B1, which Kd [1] is on record?
The Kd was 0.4 nM.

What about the “IC50 (read off the curve)” value [2] of the same binder?
Its value is ~0.08 µg/mL.

What about the “Hu Mono DR EC50” value [3] of the same binder?
The value was ~0.0004 µg/mL.

And the “EC50 (read off the curve)” value [4]?
The value was ~0.2 µg/mL.

What about the “EC50 (read off the curve)” value [5] of the same binder?
Its value is ~0.3 µg/mL.

What about the Kd (recombinant human PILRB) of the same binder?
The Kd was 18 nM.
